Measurements from the DeepSol protein solubility set.

Assay: soluble on expression in E. coli; label from the status in PepcDB or PDB records
For “MSLNKSTVDYQNAKILMDNFYSSREININGDNVTIVINDIMYIPSIDELEIKNGDKNLIIKFDRDGNKVKYKDIECIEYLNLKKGEEISLFNKSYIVEDITSNYVILKEKDGKEVLTNESFEYDGYKVVVKLVSSDLNTIIVDIYKNEKVLDSPKLTKGKIYYMKGGTLGLMYENCTRIGKGYRFTFRVYSTIKIEEGEDYPLDKEFKVKEISTDKIKLEYKNIDSLGNEIYLFNYTIIPEKCYKDYVLFKVIKRKEKTVDVKDVAYIGDGIYAVKVNNTVHVFYKGKELKNHEKIYLGSVDVYSSNPLNVNKDIILIGGPKVNKIVKELEDKGLLKVNISTNYPGNNRGIILKIKNPYNDNNIYILAGSDRWGTKAAILVFLTKYNDEDTLMVEWDKGEIKIIKEGHHHHHH”, the “soluble on expression in E. coli” value was “soluble”.
In the case of “MVKLMEVYEGKAKKMIPIDDDKLIMEFKDDATAFDGTKKARFKGKGWLNAQLSVIFFKLLEEHGIKTHFIGVAGGNRLIVEKLDMYPLEVVVRNVVAGSLKKRLPLPEGYELPEPIVELYYKNDELHDPMINYYHAKVLGISLDEIKKIEEIALKVNEILKDYLAKKGIILVDFKLEFGKDKNGDIVLADEISPDTCRFWDAKTKRSLDKDVFRFDKGDLIEAYKEIYERITGEKPEF”, the “soluble on expression in E. coli” value is reported as “soluble”.
For “MSISDTVKRAREAFNSGKTRSLQFRIQQLEALQRMINENLKSISGALASDLGKNEWTSYYEEVAHVLEELDTTIKELPDWAEDEPVAKTRQTQQDDLYIHSEPLGVVLVIGAWNYPFNLTIQPMVGAVAAGNAVILKPSEVSGHMADLLATLIPQYMDQNLYLVVKGGVPETTELLKERFDHIMYTGSTAVGKIVMAAAAKHLTPVTLELGGKSPCYVDKDCDLDVACRRIAWGKFMNSGQTCVAPDYILCDPSIQNQIVEKLKKSLKDFYGEDAKQSRDYGRIINDRHFQRVKGLIDNQKVAHGGTWDQSSRYIAPTILVDVDPQSPVMQEEIFGPVMPIVCVRSLEEAIQFINQREKPLALYVFSNNEKVIKKMIAETSSGGVTANDVIVHITVPTLPFGGVGNSGMGAYHGKKSFETFSHRRSCLVKSLLNEEAHKARYPPSPAKMPRH”, the “soluble on expression in E. coli” value was “soluble”.
In the case of “MGSDKIHHHHHHMRVAMWSGPRNLSTAMMYAFGNRPDCEAWDEPFYAAYLAQTGLDHPMRQTVLASQPPHYGAVVERLLATPTQPVQYLKLMTHHMLPDTSLTWATGFANIHLIRHPARVIASYTAKRAEITLDDIGFPQAARLHTALPGPIIDSADIRAAPEAMLRSLCEAIDLPFDPAMLHWPAGPKPFDGAWAPHWYDAVHRSTGFAAAEGHLPEVPDHHRGLLKDALDIYETLHQSRLRP”, the “soluble on expression in E. coli” value is reported as “not soluble”.
For “MRIHDIDPDNRPRERFLRSGKESLSPAELLALILRSGTAGLNIIDTCNKLISEHGLERLADLSIQELQKTPGIGEAKAMQIAAIFELQRRLHFARNMNLKVKGARDVFEYMKGRIPDETKEHLFVLFLSTKNQILRHETITIGTLTASLIHPREIFKAAIRESAHSIILVHNHPSGDVQPSNADKQVTSILKKAGDLLQIELLDHVIVGNNDWFSFRDHALL”, the “soluble on expression in E. coli” value was “not soluble”.
For “MPVFRRHASQNCASIPPMMLFKRPDTETLYFALVNKDPAYEGVAYVCVTSTKIFCRFTCTARKPKIENCRFRETITECLEAGFRPCKRCKPMLSYGTPDGTVTALLTALENEPARRWREEDVVALGHDPSTVRRSFKRRFGMSFLEIARLRRVGDAAESLASGEAVIGAQIDAGYESGSGFRSAINQLFGTSPAAMKGRGFLKGDWIDTPIGPMLAVADDHALHLLEFADRPALPAELKRLKARTGADMVLGRTAVTGQIAAELAAYFAGRSGSFETRLAGHGTPFERDVWRNLREIPAGEIVSYSSLATAMERPTAVRAVARANGANQLAIVVPCHRVLGADGSLTGYGGGLWRKKWLIEHERRMARGQMLGMPLASLEHHHHHH”, the “soluble on expression in E. coli” value was “not soluble”.
With “MTQGAVKTTGKRSRAVSAKKKAILSAALDTFSQFGFHGTRLEQIAELAGVSKTNLLYYFPSKEALYIAVLRQILDIWLAPLKAFREDFAPLAAIKEYIRLKLEVSRDYPQASRLFCMEMLAGAPLLMDELTGDLKALIDEKSALIAGWVKSGKLAPIDPQHLIFMIWASTQHYADFAPQVEAVTGATLRDEVFFNQTVENVQRIIIEGIRPR” the “soluble on expression in E. coli” value was “soluble”.
With “MTTFPTLDPELAAALTMLPKVDFADLPNARATYDALIGAMLADLSFDGVSLRELSAPGLDGDPEVKIRFVTPDNTAGPVPVLLWIHGGGFAIGTAESSDPFCVEVARELGFAVANVEYRLAPETTFPGPVNDCYAALLYIHAHAEELGIDPSRIAVGGQSAGGGLAAGTVLKARDEGVVPVAFQFLEIPELDDRLETVSMTNFVDTPLWHRPNAILSWKYYLGESYSGPEDPDVSIYAAPSRATDLTGLPPTYLSTMELDPLRDEGIEYALRLLQAGVSVELHSFPGTFHGSALVATAAVSERGAAEALTAIRRGLRSLSPVS” the “soluble on expression in E. coli” value was “soluble”.
In the case of “DIQMTQSPASLSASVGETVTITCRASENIYSYLAWYQQKQGKSPQLLVYNAKTLAEGVPSRFSGSGSGTQFSLKINSLQPEDFGSYYCQHHYGTPFTFGSGTKLEIKRHHHHHH”, the “soluble on expression in E. coli” value is reported as “soluble”.
In the case of “MGSDKIHHHHHHMRFDLIDLRLFLHILETGSITHGAARANMSLPSASARLRGMEDALGMPLLERGRRGVESTPTGDTLAHHARLVLGQIERMQGELGEHQEGRKACIRLWTNTAAITEFLPAAIGLFLRDHPNVQIDLKERQSSETVKAVLSGAAEIGIISDAVEHGALQTFPFAIDKLVLVTSRDDALATCRRTTLAEVADREFIGLSADSALQAYLGERALLAGQPLSFRTHVRTFDAVCCMVDQGAGVGIVPATAAKRYRGTPGIRTIELTDSWATRQLLICMRDLNAMARPEKALVRHLAGI”, the “soluble on expression in E. coli” value is reported as “not soluble”.
In the case of “MPTVNVIGAGLAGSEAAWQIAQAGVDVNLYEMRPVKMTPAHHTSNFAELVCTNSLRANQITNAVGLLKEEMRQLHSIIIQSADATAVPAGGALAVDREPFSELVTQKLTSNSHIHVVNEELSAFPDGITVVATGPLTAPGLAQAIVDLNGEAGLSFFDAAAPILDANTINEDIVYKKSRYDRGEAAYLNCPMTKDEFLAFYQALVSAEVAEGHDFEKMTVFEGCMPIEVMAKRGIKTMLFGPLKPVGLEDPRTGKEPYAVVQLRQDNAAASLYNMVGFQTHLKWGEQKRVFRLIPGLENVQIVRYGVMHRNTFMKSPVVLEPTYASKRRPDLFFAGQMTGVEGYVESAASGLIAGINATRMALGETPVIFPETTAMGSMAHYITHTSAHHFQPMNANFGIMPALTVKIRNKKERNQQLADRALKDLATFQAGMNRVEQVLEHHHHHH”, the “soluble on expression in E. coli” value is reported as “soluble”.
In the case of “SIHYTWQNALLDVSERLGVANNSVTLLQQKQANYVRAFADSYDFRTRINQGTPQDELQKWVTEQKKRYSLDFLSFQRVNSMENKFRFMDLTKRESFFDVLNREELEQLDPELAKRAEVPILADGGMEARGLVSRTVIPVYSQANDLIGFLDGGLLLNNSTVLVDQIRDLIYLSDNDRLRPVGTLTVFLDDLRVSTNVPLDSDHRLGRAIGTRVSAEVYNQVLSKGQQWVDRAYVYDAWYITAYQPIKDQYDNVIGMLYTGYLMWPFVKAYMTNIAE”, the “soluble on expression in E. coli” value is reported as “not soluble”.
In the case of “MSLKILFAVSECTPFVKSGGLADVAGALPKALARLGNEVAVMLPKYSQIPEPWKKRMKKQAECTVAVGWRQQYCGIEHMAENDVNYYFIDNEYYFNRDSLYGHYDDGERFAFFSRAVLEAAKVVNVQADIVHTHDWHTAMVNYLLKEEYRKHPFYERMKSVLTIHNLQFQGIFPPDVTHDLLGLEMDHFHYERLECNGFVNFMKAGIIAADHVTTVSPTYRNEIMTPYYGEQLEQVLQYREDDVTGILNGIDDTFYQPKSDPYIEAQYDSGDLACKLENKTKLQQRMGLPEKNDIPLISMVTRLTKQKGLDLVRRIMHELLEEQDIQLVVLGTGEREFEDYFRYAEFAFHEKCRAYIGFDEPLAHQIYAGSDMFLMPSKFEPCGLGQLIALQYGAIPIVRETGGLYDTVRAYQEEEGTGNGFTFSAFNAHDLKFTIERALSFYCQQDVWKSIVKTAMNADYSWGKSAKEYQRIFEQVTRSGRDVLEEGHHHHHH”, the “soluble on expression in E. coli” value is reported as “soluble”.
In the case of “LNKTVKHMWPFICQFIEKLFRETIEPAVRGANTHLSTFSFTKVDVGQQPLRINGVKVYTENVDKRQIILDLQISFVGNCEIDLEIKRYFCRAGVKSIQIHGTMRVILEPLIGDMPLVGALSIFFLRKPLLEINWTGLTNLLDVPGLNGLSDTIILDIISNYLVLPNRITVPLVSEVQIAQLRFPVPKGVLRIHFIEAQDLQGKDTYLKGLVKGKSDPYGIIRVGNQIFQSRVIKENLSPKWNEVYEALVYEHPGQELEIELFDEDPDKDDFLGSLMIDLIEVEKERLLDEWFTLDEVPKGKLHLRLEWLTLMPNASNLDKVLTDIKADKDQANDGLSSALLILYLDSARNLPSGKKISSNPNPVVQMSVGHKAQESKIRYKTNEPVWEENFTFFIHNPKRQDLEVEVRDEQHQCSLGNLKVPLSQLLTSEDMTVSQRFQLSNSGPNSTIKMKIALRVLHLEKRERPPDHQHSAQVKRPSVSKEGRKTSIKSHMSGSPGPGGSNTAPSTPVIGGSDKPGMEEKAQPPEAGPQGLHDLGRSSSSLLASPGHISVKEPTPSIASDISLPIATQELRQRLRQLENGTTLGQSPLGQIQLTIRHSSQRNKLIVVVHACRNLIAFSEDGSDPYVRMYLLPDKRRSGRRKTHVSKKTLNPVFDQSFDFSVSLPEVQRRTLDVAVKNSGGFLSKDKGLLGKVLVALASEELAKGWTQWYDLTEDGTRPQAMT”, the “soluble on expression in E. coli” value is reported as “soluble”.
With “MAHHHHHHMAQCLTWQVLDQRQTGECLDAVDLEALRAVIKRIDDDRDGALLHSSERTATQVNVLLDLYGHLVLFAKASQFSPFKTSTLFGIVHRVHEASIADRLSRFHSYDLLRELVVRHSVHRPPYSTMVFSVREVQDIDTYMMSTYYRHYKMYVYCFVPREVASLRTVMLNDTAEAPPAQLPPLSAAIREDAWKEKMQEKVRTLEEAEMEEQLIVSDAVSEAQKNAATLDNSRFMAGISAQLEAIRDAVSTKSSERLDLIEEKLTAIEAKVNEAQSSGNRSRQGSRGSSKRK” the “soluble on expression in E. coli” value was “soluble”.
In the case of “MSSEAVAQATAATTSPEHGVPTSSATPTPPPSKGGGAGGGGGGEQQQVPFQMIPPGHFFANPFLNPYIPTAGAPAQEGEAQPQMVFSPAQYQEVMHHYFQQMMAASGAQFPIPFPMQFQPALQQPRPSSQASSSHRSEDDNGRQTAGSVVSSNVSPNHREVRPAEDSTETSGVVQNNDELLVPTSTSSDVTIGDVIEKSDSPENSQESAGGEEKSEEKRKLSGDRTDSLIRKQMSEMEKEITRRSQNKNIKTSGLSYTAPAPPSTEKSAPKESLNQLRSSFNLPDDSTTVGPVGPSTVPQQSQQFANNSMFMANAGNFVQNAFPIGVTMTPQATFGAAPGFQMMQPHQHNLFMQQPNPTFVNNGTNPFLQTQATLPNFVQNGTAPLVPTVSAQQFTPEQLAAAFAQQQIAQSAAPTPFDSPPPSMPSTSSGPSGALAPPPPPSHPIPRRVSGNGWPEENKENGTSTSTTNGAQSVPAAAGTDDPVWVLRDSYLKKMQREQRTSEEEEMSWQEAATAAQEAAENGGGDDQEEQETDRLLNGGTTGASTKGAERRGSVDKKKNSKETMVHEPAVLIEGVLFRARYLGSTQMLCESRGSKAARMAQAQEAVARVKAPEGDVQPSTEIDLFISTEKIMVLNTDLQRISDTDVRQDILMDHALRTISYIADIGDLVVLMARRMSTSHSDESCSDGDSSGGGVRKTPKVICHVFESDEASFIAQSIGQAFQVAYVEFLRANGIDDPSYLRQIDYQEVLNSQELLGDELEMFAKKETQKEVVVPKKAGEPLGIVVVESGWGSMLPTVVLAHMNPVGPAAHSNKLNIGDQIININGISLVGLPLSAAQTQIKNMKTATAVRMTVVSTPPVVEVRIRRPDTKYQLGFSVQNGVICSLLRGGIAERGGIRVGHRIIEINGTSVVAVAHDRIVNMLATAVGEIHMKTMPTSMFRLLTGQEQPQYI”, the “soluble on expression in E. coli” value is reported as “not soluble”.
For “MHHHHHHSSGVDLGTENLYFQSMASGANFEYIIAEKRGKNNTVGLIQLNRPKALNALCDGLIDELNQALKIFEEDPAVGAIVLTGGDKAFAAGADIKEMQNLSFQDCYSSKFLKHWDHLTQVKKPVIAAVNGYAFGGGCELAMMCDIIYAGEKAQFAQPEILIGTIPGAGGTQRLTRAVGKSLAMEMVLTGDRISAQDAKQAGLVSKICPVETLVEEAIQCAEKIASNSKIVVAMAKESVNAAFEMTLTEGSKLEKKLFYSTFATDDRKEGMTAFVEKRKANFKDQ”, the “soluble on expression in E. coli” value was “soluble”.
